{"source": "paper PMC13480645", "molecular_target": "MERS-CoV S2 stem helix peptide (MERS-CoV)", "test": "BLI", "note": "pKd: −log10 of the molar value.", "data": [{"substance": "S2P6 (antibody)", "values": [{"measurement": "pKd", "value": 9.14}, {"measurement": "kon", "value": 315000, "unit": "M⁻¹ s⁻¹"}]}]}
